Data on 1 molecule can be found in patent US20070014736A1, “Methods of delivering corticotroph-derived glycoprotein hormone” (priority 2005, published 2007).

This assay deals with obese male ob/ob mice. In words: Chronic 28-day treatment of ob/ob mice. It is filed as in vivo. The protocol: Summary: CGH was administered daily for 28 days to obese male ob/ob mice. Mice were also treated with vehicle saline and thyroxine. Data was obtained for food intake, blood glucose, serum insulin, serum lipids, and serum thyroid hormone levels. At sacrifice, animals were examined for changes in liver pathology, and gross histology. […] Evaluation of liver histology sections was performed to examine the effect of CGH-mediated lipolysis on liver steatosis.
11-week old male ob/ob mice were individually caged and given a standard lab chow (4% fat) with free access to food and water. Animals were assigned to a treatment group (n=7−8, average weight 54.3±0.3 g/group), kept on a 12 hour dark cycle (6 PM to 6 AM), and injected each day between 7 and 9 AM. Chow consumed by each animal was weighed twice weekly. All animals received treatments IP in an injection volume of 0.1 ml. CGH was administered at 250 μg/kg, dissolved in sterile saline. Thyroxine (T4) was administered at 1.5 μg/mouse for 4 days, reduced to 1 μg/mouse for 10 days, and returned to 1.5 μg/mouse for the next 14 days. The vehicle controls received sterile saline. TSH was obtained from Genzyme Pharmaceuticals (Thyrogen®, Catalog number 36778; Genzyme Corporation, Cambridge, Mass.), and T4 obtained from Calbiochem, Inc. (EMD Biosciences, catalog number 61205, San Diego, Calif.) All blood draws were performed by retro-orbital puncture under isoflurane anesthesia.
After 25 days of treatment as described above, blood was sampled from all treated animals, serum separated, and analyzed for total T4 by a commercially available kit (Biocheck, Burlingame, Calif.). After 25 days of treatment, the vehicle T4 levels were 5.14±0.08 μg/dl. The CGH-treated group had T4 levels of 7.25±1.2 μg/dl, and the thyroxine-treated group had T4 levels of 9.04±0.47 μg/dl.
Subject animals were fasted for 4 hours at the beginning of the light cycle, and serum was obtained at treatment day 25 under isoflurane anesthesia. Serum Glucose levels were determined with the Cholestech LDX blood analyzer (Cholestech Corporation, Hayward Calif.), and serum insulin levels by ELISA. Serum glucose levels for vehicle and thyroxine treated groups were 306±22 and 295±23 mg/dl, respectively. […] Serum insulin levels for the vehicle and thyroxine treated groups were 33.5±1.8 and 25.9±1.7 ng/ml, respectively.
Subject animals were fasted for 4 hours at the beginning of the light cycle, and serum was obtained at treatment day 25 under isoflurane anesthesia. Triglyceride and total cholesterol levels were determined with the Cholestech LDX blood analyzer. Serum triglyceride levels for the vehicle controls were 143.7±23 mg/dl. […] Total cholesterol levels in the vehicle-treated and thyroxine-treated groups were 198±13 and 194±15 mg/dl, respectively.
Liver sections were dissected from all treatment groups described above and mounted in paraffin following fixation with NBS-formalin. Sections were mounted and stained with hematotoxylin and eosin (H&E) for visualization of hepatic structural changes. The extent of liver steatosis was evaluated on a four-point scale, from 0 to 3, with zero displaying no signs of liver steatosis, and a […], represented pronounced macrovesicular and microvesicular steatosis. […] Average scores given to the groups were vehicle (4), thyroxine (3), and CGH (1.5). […] The CGH treated sections appear to have regained hallmarks of normal hepatocyte architecture in only 28 days of treatment, with areas containing hepatocytes without lipid-laden inclusions in the cytoplasm of the cell.

B1: CGH: heterodimeric protein hormone comprised of alpha subunit GPHA2 and beta subunit GPHB5, recombinantly produced in CHO cells (protein)
chain 1: QEAVIPGCHLHPFNVTVRSDRQGTCQGSHVAQACVGHCESSAFPSRYSVLVASGYRHNITSVSQCCTISGLKKVKVQLQCVGSRREELEIFTARACQCDMCRLSRY
chain 2: ASSGNLRTFVGCAVREFTFLAKKPGCRGLRITTDACWGRCETWEKPILEPPYIEAHHRVCTYNETKQVTVKLPNCAPGVDPFYTYPVAIRCDCGACSTATTECETI
For B1, the “liver steatosis average score” value (H&E liver sections, 28 days, n=4) was determined as 1.5. Moreover, the “serum total T4 levels” value (after 25 days of treatment) is 7.25 ± 1.2 µg/dL. Also, for the setting “day 25, fasted 4 hours”, the Serum glucose levels came out at 251 ± 10 mg/dL, the Serum insulin levels amounted to 14.2 ± 3.6 ng/mL, the Serum triglyceride levels is 100 ± 14.7 mg/dL and the Total cholesterol levels was 104 ± 8.8 mg/dL. For the same molecule, the Food intake (ob/ob mice, CGH 250 μg/kg IP daily, T4 1-1.5 μg/mouse) is reported as 6.3±0.09 grams/day of chow.
